Substrate in series [1]: C[N+](C)(C)CCO
As to the kind of experiment: Michaelis-Menten kinetics (Km), radiolabelled substrate, extracts of E. coli expressing the recombinant enzyme. It is filed as biochemical, Homo sapiens. The note with it: ATP, MgCl2.

Substrate in series [2]: NCCO
The series is described as above. It counts as biochemical, Homo sapiens. The note with it: ATP, MgCl2.

B1: ChoKβ (choline kinase beta, ChoKβ1) (Homo sapiens) (protein)
chain: AAEATAVAGSGAVGGCLAKDGLQQSKCPDTTPKRRRASSLSRDAERRAYQWCREYLGGAWRRVQPEELRVYPVSGGLSNLLFRCSLPDHLPSVGEEPREVLLRLYGAILQGVDSLVLESVMFAILAERSLGPQLYGVFPEGRLEQYIPSRPLKTQELREPVLSAAIATKMAQFHGMEMPFTKEPHWLFGTMERYLKQIQDLPPTGLPEMNLLEMYSLKDEMGNLRKLLESTPSPVVFCHNDIQEGNILLLSEPENADSLMLVDFEYSSYNYRGFDIGNHFCEWVYDYTHEEWPFYKARPTDYPTQEQQLHFIRHYLAEAKKGETLSQEEQRKLEEDLLVEVSRYALASHFFWGLWSILQASMSTIEFGYLDYAQSRFQFYFQQKGQLTSVHSSS
notes: human ChoKβ1 expressed in E. coli DH5α (extracts)
Regarding B1, the Km in series [1] worked out at 570 µM; in series [2], 2010 µM.

The values above are taken from article PMC2773002, “Differential Role of Human Choline Kinase α and β Enzymes in Lipid Metabolism: Implications in Cancer Onset and Treatment” (PLoS ONE, 2009).
